Test results from patent US20240024504A1, “SITE-SELECTIVE LYSINE ACETYLATION OF HUMAN IMMUNOGLOBULIN G AND IgG-RELATED PRODUCTS FOR IMMUNOTHERAPY” (The Chinese University of Hong Kong, priority 2022, published 2024).

Tests used:
His-tagged human PD-L1 = target: T1, His-tagged human PD-L1 (Homo sapiens, UniProt Q9NZQ7); assay: Pull-down assay of modified atezolizumab on PD-L1 loaded Ni-NTA resins; type: binding; conditions: PD-L1 immobilized on Ni-NTA resins
T1 construct: purchased GenScript
Protocol: (FIG. 16A) A pull-down experiment in vitro. […] (FIG. 16B) FITC labeled PD-L1 was immobilized on Ni-NTA agarose resin through polyhistidine tag.
Ni-NTA agarose resins were resuspended and 20 μL resins were pipetted into a 1.5 mL tube. After washing with PBS-T buffer (phosphate buffered saline supplemented with 0.1% Tween-20), His-tagged human PD-L1 (200 nM) was immobilized on Ni-NTA resins in 100 μL buffer solution (20 mM imidazole, pH 7.4 PBS-T) at room temperature for 1 h with shaking. The binding solution was removed by centrifugation and the resins were washed three times with pH 7.4 PBS-T buffer. Then Atezo-TAMRA (100 nM) was incubated with the resins in 100 μL buffer solution (20 mM imidazole, pH 7.4 PBS-T) for 1 h with shaking. Next, the resins were washed three times with PBS-T and eluted by boiling the beads for 10 min in 2× sample loading buffer. The samples were analyzed by SDS-PAGE. As a negative control, same amount of polyclonal IgG was incubated with the PD-L1 loaded resins. For confocal microscopy, His-tagged human PD-L1 was firstly labelled by FITC.

[1] = tested on: PD-L1 positive (PC12) cells; assay: Immunofluorescence of modified atezolizumab, confocal microscopy; type: cell-based; conditions: 150 nM, PBS pH 7.4, 37° C., 15 min
Protocol: FIG. 5A-5B Acetylation of therapeutic antibody and immunofluorescence. (FIG. 5A) Acetylation reaction monitored by SDS-PAGE and fluorescent scanning. Reaction condition: 4 μM antibodies, 24 μM F1, PBS buffer (pH 7.4), at 37° C. for 1 h. The reactions were quenched with 1% SDS and DBCO-TAMRA was added at room temperature for 1.5 h for SPAAC reaction before SDS-PAGE and in-gel fluorescent imaging. Lane M, molecular weight marker; lane 1, M-trastuzumab; lane 2, M-cetuximab; lane 3, M-daratumumab; […], reduced results of […]. […] Incubation conditions: Cells were incubated with modified antibodies (150 nM) in PBS buffer (pH 7.4) at 37° C. for 15 min before the fixation of cells.

IgG Fc = assay: Competition between reactive peptide (F1) and non-reactive peptide; type: biochemical, human; conditions: non-reactive peptide added to the reaction of F1 and IgG
Protocol: (FIG. 3A) The structures of peptides used in this work. FITC moiety was added at the N-termini of the peptides to MST analysis.

T1 sequence (Q9NZQ7 19-290): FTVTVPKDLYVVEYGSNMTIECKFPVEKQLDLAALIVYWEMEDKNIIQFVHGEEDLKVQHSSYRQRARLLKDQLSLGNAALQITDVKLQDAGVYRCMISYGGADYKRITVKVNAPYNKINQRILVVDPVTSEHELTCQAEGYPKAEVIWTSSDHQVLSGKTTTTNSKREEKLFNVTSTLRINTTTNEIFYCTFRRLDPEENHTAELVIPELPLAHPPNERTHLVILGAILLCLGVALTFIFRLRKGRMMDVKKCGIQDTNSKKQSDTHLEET

| binding to PD-L1 (pull-down) (His-tagged human PD-L1) | binding to PD-L1 (pull-down) (His-tagged human PD-L1; listed as acetylated atezolizumab) | Molecule | binding to cells (immunofluorescence) [1] | effect on the acetylation reaction of F1 and IgG (IgG Fc) |
| --- | --- | --- | --- | --- |
| reserved the binding ability to PD-L1 | could still bind its ligand | M-Atezo: atezolizumab azidoacetylated at Lys248 of the Fc by F1 (DBCO-TAMRA tagged for detection) | maintained their binding with PD-L1 positive (PC12) cells |  |
|  |  | CC(C)C[C@@H]1NC(=O)C(CCC(=O)O)NC(=O)CNC(=O)[C@H](CC(C)C)NC(=O)[C@H](Cc2c[nH]cn2)NC(=O)[C@H](Cc2c[nH]c3ccccc23)NC(=O)[C@H](C)NC(=O)[C@@H](NC(=O)[C@H](CC(=O)O)NC(=O)CCNC(=O)CNC(=S)Nc2ccc(-c3c4ccc(=O)cc-4oc4cc(O)ccc34)c(C(=O)O)c2)CSSC[C@@H](C(=O)N[C@H](C(N)=O)[C@@H](C)O)NC(=O)[C@H](Cc2c[nH]c3ccccc23)NC(=O)[C@H](C(C)C)NC1=O (stereo partly shown) [f-F0] |  | abolished the acetylation reaction |
